Reference: patent US6384189 (UAB RESEARCH FOUNDATION, dated 2002)

Biological target: recombinant small latent TGF-β
Experiment: cell-based or functional assay

Fold Activation of Latent TGF-β over Baseline (soft agar NRK colony formation)	Binder
2.3 fold over baseline	KRFKQDGGWSHWSP [KRFKQDGGWSHWSP (SEQ ID NO:14)]
2.1 fold over baseline	KRFKQDGGWWSP [KRFKQDGGWWSP (SEQ ID NO:17)]
2 fold over baseline	KRFKQDGGWSHWSPWSS [KRFKQDGGWSHWSPWSS (SEQ ID NO:15)]
1.9 fold over baseline	KRFKQDGGWSHW [KRFKQDGGWSHW (SEQ ID NO:16)]
2.1 fold over baseline	KRFKQDGG [KRFKQDGG (SEQ ID NO:9)]
2 fold over baseline	KRFK [KRFK (SEQ ID NO:5)]

Biological target: recombinant small latent TGF-β
Experiment: cell-based or functional assay
Remark: another data set of the same source

Fold Activation of Latent TGF-β over Baseline (soft agar NRK colony formation)	Binder
2 fold over baseline	HRFK [HRFK (SEQ ID NO:6)]
2.2 fold over baseline	KKFK [KKFK (SEQ ID NO:32)]
2 fold over baseline	QRFK [QRFK (SEQ ID NO:8)]
2 fold over baseline	KRFK [KRFK (SEQ ID NO:5)]
